T1: CD123 (Homo sapiens (Human), UniProt P26951 19-305, limits assumed)
T1 construct: also called CD123-Signal
T1 sequence: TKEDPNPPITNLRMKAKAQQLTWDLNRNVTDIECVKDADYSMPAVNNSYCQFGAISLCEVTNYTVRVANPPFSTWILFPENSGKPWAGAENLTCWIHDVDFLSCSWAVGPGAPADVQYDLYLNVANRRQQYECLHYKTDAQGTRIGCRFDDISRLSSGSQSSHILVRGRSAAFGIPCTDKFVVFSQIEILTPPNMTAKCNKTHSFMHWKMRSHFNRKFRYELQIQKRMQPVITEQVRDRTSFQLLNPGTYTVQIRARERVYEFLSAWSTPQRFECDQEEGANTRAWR

B1: D domain SEQ ID NO: 660 (designed binder)
chain: MGSWYEFEQRLGAIEERLWALGGSEAELAAFEDIIAYFEYQLQSYKGKGNPEVEALDEEAWAIDDELWAYRHN
B2: D domain SEQ ID NO: 661 (designed binder)
chain: MGSWWEFEQRLDAIETRLWALGGSEAELAYFEHIIADFEDELQIYKGKGNPEVEALGWEAFAIDGELTAYRHN
B3: D domain SEQ ID NO: 662 (designed binder)
chain: MGSWFEFPYRLEAIEERLYALGGSEAELAQFEQFIAWFEMDLQDYKGKGNPEVEALWFEANAIVEELDAYRHN
B4: D domain SEQ ID NO: 663 (designed binder)
chain: MGSWVEFYDRLEAIEIRLWALGGSEAELADFESFIAHFEDDLQAYKGKGNPEVEALMDEANAIVFELDAYRHN
B5: D domain SEQ ID NO: 664 (designed binder)
chain: MGSWVEFWDRLDAIEERLWALGGSEAELAEFEFMIAMFEQHLQEYKGKGNPEVEALIPEAGAIDKELTAYRHN
B6: D domain SEQ ID NO: 665 (designed binder)
chain: MGSWDEFDARLWAIEERLWALGGSEAELAEFEFMIAAFEDVLQEYKGKGNPEVEALMGEANAIVMELDAYRHN
B7: D domain SEQ ID NO: 666 (designed binder)
chain: MGSWYEFWRRLDAIEERLWALGGSEAELAMFETDIAGFEWMLQLYKGKGNPEVEALEHEAWAINSELDAYRHN
B8: D domain SEQ ID NO: 667 (designed binder)
chain: MGSWHEFIWRLDAIEERLWALGGSEAELAWFETEIATFEAQLQDYKGKGNPEVEALEWEAIAIAWELDAYRHN
B9: D domain SEQ ID NO: 668 (designed binder)
chain: MGSWYEFYWRLEAIEERLWALGGSEAELAEFEKAIATFEDQLQTYKGKGNPEVEALETEALAIHAELEAYRHN
B10: D domain SEQ ID NO: 669 (designed binder)
chain: MGSWFEFQWRLEAIEDRLWALGGSEAELAEFETIIAGFEEQLQVYKGKGNPEVEALEEEAMAIQTELHAYRHN
B11: D domain SEQ ID NO: 670 (designed binder)
chain: MGSWWEFEDRLWAIEQRLDALGGSEAELAVFENSIAKFEDMLQVYKGKGNPEVEALHEEADAIIWELYAYRHN
B12: D domain SEQ ID NO: 671 (designed binder)
chain: MGSWWEFEDRLWAIDRRLMALGGSEAELAVFEQMIAHFEQILQVYKGKGNPEVEALHFEAHAIGMELAAYRHN
B13: D domain SEQ ID NO: 672 (designed binder)
chain: MGSWWEFLDRLEAIEYRLQALGGSEAELAVFEWEIAMFEDHLQGYKGKGNPEVEALHSEAHAIISELSAYRHN
B14: D domain SEQ ID NO: 673 (designed binder)
chain: MGSWAEFEDRLAAIERRLEALGGSEAELADFESSIAWFEPDLQYYKGKGNPEVEALMYEAEAIFSELYAYRHN
B15: D domain SEQ ID NO: 674 (designed binder)
chain: MGSWWEFYDRLTAIEARLWALGGSEAELADFEEGIADFEYDLQDYKGKGNPEVEALFWEAWAIQSELTAYRHN
B16: D domain SEQ ID NO: 675 (designed binder)
chain: MGSWYEFEDRLAAIEARLWALGGSEAELADFEEEIAYFEHGLQWYKGKGNPEVEALESEAMAIIDELHAYRHN
B17: D domain SEQ ID NO: 676 (designed binder)
chain: MGSWWEFSWRLEAIETRLDALGGSEAELAFFEMDIAWFEQDLQLYKGKGNPEVEALEEEAYAIYEELEAYRHN
B18: D domain SEQ ID NO: 677 (designed binder)
chain: MGSWEEFFFRLEAIDDRLYALGGSEAELALFEEVIAYFEQDLQWYKGKGNPEVEALYVEAYAIQEELYAYRHN
B19: D domain SEQ ID NO: 678 (designed binder)
chain: MGSWFEFEERLNAISWRLHALGGSEAELAYFEEDIAWFEDDLQFYKGKGNPEVEALENEAYAIWEELDAYRHN
B20: D domain SEQ ID NO: 679 (designed binder)
chain: MGSWFEFEERLEAIIYRLWALGGSEAELAMFEESIAWFESDLQQYKGKGNPEVEALEYEAMAISKELKAYRHN
B21: D domain SEQ ID NO: 680 (designed binder)
chain: MGSWAEFDDRLEAIEYRLHALGGSEAELAWFEEGIAGFEHALQSYKGKGNPEVEALETEAGAINEELWAYRHN
B22: D domain SEQ ID NO: 681 (designed binder)
chain: MGSWDEFEERLQAIEYRLWALGGSEAELAWFEEVIAQFEYDLQKYKGKGNPEVEALSTEAQAIQDELWAYRHN
B23: D domain SEQ ID NO: 682 (designed binder)
chain: MGSWWEFTDRLDAIFDRLWALGGSEAELAAFEESIAIFEQDLQYYKGKGNPEVEALEYEANAIQYELEAYRHN
B24: D domain SEQ ID NO: 683 (designed binder)
chain: MGSWWEFTDRLEAIEDRLWALGGSEAELAHFEDSIAQFEQELQWYKGKGNPEVEALADEADAIESELHAYRHN
B25: D domain SEQ ID NO: 684 (designed binder)
chain: MGSWVEFFWRLDAIEDRLWALGGSEAELANFEFEIADFEAWLQKYKGKGNPEVEALHSEADAIQLELRAYRHN
B26: D domain SEQ ID NO: 685 (designed binder)
chain: MGSWVEFYNRLDAIENRLWALGGSEAELAFFEELIAQFEFALQDYKGKGNPEVEALEDEADAIWEELMAYRHN
B27: D domain SEQ ID NO: 686 (designed binder)
chain: MGSWEEFYYRLHAIDNRLWALGGSEAELAYFEWHIADFELELQDYKGKGNPEVEALSEEATAIFEELWAYRHN
B28: D domain SEQ ID NO: 687 (designed binder)
chain: MGSWREFHDRLFAIDGRLWALGGSEAELANFEWDIADFEFELQDYKGKGNPEVEALSWEADAIMQELGAYRHN
B29: D domain SEQ ID NO: 688 (designed binder)
chain: MGSWEEFDERLWAISDRLWALGGSEAELAYFEGEIAYFEQNLQTYKGKGNPEVEALQTEALAIDTELWAYRHN
B30: D domain SEQ ID NO: 689 (designed binder)
chain: MGSWEEFEQRLWAIDDRLWALGGSEAELAFFEYEIAEFEMDLQWYKGKGNPEVEALFYEAHAINEELWAYRHN
B31: D domain SEQ ID NO: 690 (designed binder)
chain: MGSWDEFHQRLAAIGDRLWALGGSEAELAYFEWEIATFEWDLQVYKGKGNPEVEALYFEATAIDEELMAYRHN
B32: D domain SEQ ID NO: 691 (designed binder)
chain: MGSWVEFEYRLDAISDRLWALGGSEAELAFFENEIASFESDLQFYKGKGNPEVEALMFEAEAIDDELHAYRHN
B33: D domain SEQ ID NO: 692 (designed binder)
chain: MGSWDEFDTRLDAIFSRLYALGGSEAELAMFEGEIAEFEGSLQHYKGKGNPEVEALDFEAHAIDEELWAYRHN
B34: D domain SEQ ID NO: 693 (designed binder)
chain: MGSWHEFDDRLDAIMSRLDALGGSEAELATFEAEIATFEFVLQLYKGKGNPEVEALLAEAYAIDWELEAYRHN
B35: D domain SEQ ID NO: 694 (designed binder)
chain: MGSWYEFFDRLDAIYDRLYALGGSEAELASFEAQIAEFEVELQSYKGKGNPEVEALEWEAWAIDEELYAYRHN
B36: D domain SEQ ID NO: 695 (designed binder)
chain: MGSWFEFLYRLDAIEDRLWALGGSEAELAEFEQEIAKFESELQSYKGKGNPEVEALEWEAHAIDMELEAYRHN
B37: D domain SEQ ID NO: 696 (designed binder)
chain: MGSWLEFEDRLVAIDHRLFALGGSEAELAEFEEEIALFESYLQDYKGKGNPEVEALNWEADAIHAELYAYRHN
B38: D domain SEQ ID NO: 697 (designed binder)
chain: MGSWYEFESRLDAIVDRLWALGGSEAELAEFEYEIAKFEWELQDYKGKGNPEVEALNWEAGAIEFELYAYRHN
B39: D domain SEQ ID NO: 698 (designed binder)
chain: MGSWYEFEDRLDAILYRLLALGGSEAELAWFERDIAFFESELQWYKGKGNPEVEALEWEAMAIDDELFAYRHN
B40: D domain SEQ ID NO: 699 (designed binder)
chain: MGSWGEFMDRLEAIDYRLWALGGSEAELAWFESDIAEFEQELQMYKGKGNPEVEALWDEAMAIRDELFAYRHN
B41: D domain SEQ ID NO: 700 (designed binder)
chain: MGSWEEFDDRLDAIEHRLWALGGSEAELADFEGSIAAFESWLQVYKGKGNPEVEALEAEAEAIADELWAYRHN
B42: D domain SEQ ID NO: 701 (designed binder)
chain: MGSWYEFADRLDAIMDRLVALGGSEAELAYFEWEIAAFEEFLQMYKGKGNPEVEALDEEAEAIKDELMAYRHN
B43: D domain SEQ ID NO: 702 (designed binder)
chain: MGSWNEFWERLDAIEWRLFALGGSEAELAFFELDIAWFEEELQWYKGKGNPEVEALIFEAHAITLELDAYRHN

Target: T1, CD123
Assay: ELISA, format not described
Parameters: unit not given here

| Binder | ELISA_avg |
| --- | --- |
| B1 | 10.6 |
| B2 | 4.7 |
| B3 | 3.1 |
| B4 | 4 |
| B5 | 10 |
| B6 | 4.3 |
| B7 | 3.6 |
| B8 | 3.3 |
| B9 | 3.7 |
| B10 | 3.4 |
| B11 | 4.4 |
| B12 | 4.6 |
| B13 | 3.1 |
| B14 | 4.2 |
| B15 | 3.2 |
| B16 | 3.8 |
| B17 | 3.3 |
| B18 | 3.2 |
| B19 | 13 |
| B20 | 3.7 |
| B21 | 5.8 |
| B22 | 3.8 |

| Binder | ELISA_avg |
| --- | --- |
| B23 | 7.5 |
| B24 | 16.6 |
| B25 | 4 |
| B26 | 6.9 |
| B27 | 3 |
| B28 | 5.6 |
| B29 | 6.5 |
| B30 | 5.7 |
| B31 | 3.7 |
| B32 | 6.5 |
| B33 | 4 |
| B34 | 7.7 |
| B35 | 4.7 |
| B36 | 6.6 |
| B37 | 3.9 |
| B38 | 5.1 |
| B39 | 4.3 |
| B40 | 4.6 |
| B41 | 4 |
| B42 | 3.3 |
| B43 | 3 |

Source: patent US20250026849A1 (ARCELLX, published 2025)
